Measurements published in patent US20260258115A1 (MAPP BIOPHARMACEUTICAL, published 2026).

Tests used:
Test in all cases: BLI, IgG
[1] = target: T1, RSV postfusion F (postF), subtype A (respiratory syncytial virus subtype A, UniProt P03420 26-513)
T1 construct: also called Postfusion subtype A; F deltaFP

[2] = target: T2, RSV prefusion F (preF), subtype B (respiratory syncytial virus subtype B)
T2 construct: also called Prefusion subtype B

[3] = target: T3, RSV postfusion F (postF), subtype B (respiratory syncytial virus subtype B)
T3 construct: also called Postfusion subtype B

| Binder | Kd [1] [nM] | Kd [2] [nM] | Kd [3] [nM] |
| --- | --- | --- | --- |
| ADI-14354 (antibody, V domains shown, full-length IgG; also called Ab 22) VH: QVQLVQSGAEVKKPGSSAKVSCKASGGTFSSYTISWVRQAPGQGLEWMGRIIPFLGIANYAQKFQGRVTFTADKSTSTVYMDLSRLRSEDTALYYCAREPMYYGGDSYAFDVWGQGTTVTVSS VL: QSVLTQPASMSGSPGHSITISCTGTSSDVGAYNYVSWYQQHPGKAPKLMIYDVSNRPSGVSSRFSGSKSGNTASLTISGLQPEDEADYYCSSFTTSSTRVFGTGTKLTVL | 1.04 | 25.3 | 6.63 |
| ADI-22780 (antibody, V domains shown, full-length IgG) VH: EVQLVESGPTLVKPTQTLTLTCTFSGFSLSTSGVGVGWIRQPPGKALEWLALIYWDDDKRYSPSLKSRLTITKDTSKNQVVLTMTNMDPVDTATYYCAHRGRQYSYGYYYFDYWGQGTLVTVSS VL: QSVLIQPASVSGSPGQSITISCTGTSSDVGGYNFVSWYQQHPGKAPKLMIYDVSNRPSGVSNRFSGSKSGNTASLTISGLQAEDEADYYCSSYTSSTLDVFGTGTKVTVL | 0.739 | 23.8 | 0.6 |
| ADI-25587 (antibody, V domains shown, full-length IgG) VH: QVQLVESGGGVVQPGRSLRLSCAASGFTFSSYGMHWVRQAPGKGLEWVAVIWYDGSNKYYADSVKGRFTISRDNSKNTLYLQMNSLRAEDTAVYYCARDSTYSEAFDIWGQGTMVTVSS VL: QSVLIQPASVSGSPGQSITISCTGTSSDVGGYNYVSWYQQHPGKAPKLMIYDVSNRPSGVSNRFSGSKSGNTASLTISGLQAEDEADYYCSSYTSSSTWVFGGGTKVTVL | 9.23 |  | 7.93 |
| ADI-14351 (antibody, V domains shown, full-length IgG; also called Ab 19) VH: EVQLLESGGGLVQPGGSLRLSCSASGFTFSTYWMHWVRQAPGKGLVWVSRINGDGNDRNYADSVKGRFTISRDNAKNTVYLQMNSLRAEDTAVYYCARGGATGDFYFGMDVWGQGTTVTVSS VL: SYELTQPPSVSVAPGKTAKITCGGNNIGTKSVHWYQQKPGQAPVLVIYYDTDRPSGIPERFSGSNSGNTATLTISRVEAGDEADYYCQVWDSSNSDHVGVFGGGTQLTVL | 0.361 | 0.789 | 0.215 |
| ADI-19483 (antibody, V domains shown, full-length IgG) VH: QVQLVQSGAEVKKPGESLKISCKGSGYSFTTYWIGWVRQMPGKGLEWMGIIFPGDSDTRYSPSFQGQVTISADKSISTAYLQWSSLKASDTAMYFCARSAFPFGFDIWGQGTMVTVSS VL: SYVLTQPHSVSESPGKTVTISCTRSSGSIASNYVQWYQQRPGSSPTTVIYEDHQRPSGVPDRFSGSIDSSSNSASLTISGLQTEDEADYYCQSYGSGNPWVFGGGTKVTVL | 0.321 | 1.77 | 0.153 |
| ADI-19505 (antibody, V domains shown, full-length IgG) VH: QVQLVQSGAEVKKPGESLKISCKGSGYSFTNYWIGWVRQMPGKGLEWMGITYPGDSDTRYSPSFQGQVTISADKSISTAHLQWDSLKASDTAMYYCARLRCTGSICYDAFDIWGQGTTVTVSS VL: SYVLTQPLSVSVALGQTARITCGGNNIGSKNVHWYQQKPGQAPVLVIYRDNNRPSGIPERFSGSNSGNTATLTISRAQAGDEADYYCQVWDSSTGGDVFGAGTKVTVL | 4.94 | 44.4 | 5.01 |
| ADI-22763 (antibody, V domains shown, full-length IgG) VH: EVQLVESGGGLIQPGGSLRLSCAASGFTFSTYEMNWVRQAPGKGLEWVSSISTSGSTKDYAGSVKGRFTVSRDNAKNSLYLQMNSLRAEDTAIYYCARVYYYDSSGYYLALFDYWGQGTLVTVSS VL: EIVLTQSPSSLSASVGDRVTITCRASQSIASYLNWYQQKPGKAPKLLIYAASSLRSGVPSRFSGSGSGTDFTLTISSLQPEDFATYYCQQSYSTPSLTFGGGTKLEIK | 0.319 | 10.8 | 5.33 |
| ADI-14360 (antibody, V domains shown, full-length IgG; also called Ab 28) VH: QVQLVQSGAEVKKPGASVKVSCKASGYTFTTYSMHWVRQAPGQRLEWMGWINAGNGNTKYSQKFQGRVTITRDTSASTAYMELSSLRSEDTAVYYCARDGVGGAYYYGEMDVWGQGTTVTVSS VL: not shown | 5.88 | 26.8 | 9.03 |
| ADI-24852 (antibody, V domains shown, full-length IgG; also called Ab 413) VH: QVQLVESGAEVKKPGASVKVSCKASGYTFTSYAIHWVRQAPGQRLEWMGWINAGNGNTKYSQKFQGRVTITRDTSASTAYMELSSLRSEDTAVYYCASEESGYFDYWGQGTLVTVSS VL: not shown | 9.57 | 19 | 9.17 |
| ADI-14358 (antibody, V domains shown, full-length IgG; also called Ab 26) VH: QVQLVQSGGGLVKPGGSLRLSCVASGFTFSDYYMTWIRQAPGKGLEWVSYISGSSAYTIYADSVKGRFTISRDNAKNSLYLQMNGLRAEDTAVYYCARVSWVRSLDSWGQGTLVTVSS VL: QSALTQPASVSGSPGQSITISCTGSTSDVGLYNYVSWYQLHPGKAPKLIIYDVRHRPSGVSDRFSASKSGNTASLTISGLQAEDEADYYCCSYTSSSTYVFGSGTQLTVL | 0.656 | 60.3 | 27.5 |
| ADI-22778 (antibody, V domains shown, full-length IgG) VH: EVQLVESGPGLVKPSETLSLTCTVSGGSINSYSWTWIRQPPGKGLEWLGSFDYSGSNTYNPSLKSRVTIAVDTSKNQFSLKLTSATAADTAVYYCARAPVYDSSGYYLYYFDNWGQGTLVTVSS VL: DIQMTQSPSSLSASVGDRVTITCRASQSIASYLNWYQQKPGKAPKLLIFAASNLHSGVPSRFSGSGSGTTFTLTISSLQPEDFATYYCQQSYSIRFFTFGPGTKLEIK | 0.209 | 4.02 | 2.77 |
| ADI-14352 (antibody, V domains shown, full-length IgG; also called Ab 20) VH: EVQLLETGPGLVKPSQTLSLICAVSGGSISSGGYSWSWIRQPPGKGLEWVGYISYSGSTYYNPSLKSRVTISVDTSKNQFSLKLNSVTAADTAVYFCARVDGIYSSGMRFDYWGQGTLVTVSS VL: DIQLTQSPGTLSLSPGERATLSCRASQSVSSYYLAWYQQKPGQAPRLLIYGTSSRATGIPDRFSGSGSGTDFTLTISRLEPEDFAVYYCQQYGRSPLFGQGTRLEIK | 0.448 | 5.54 | 0.383 |
| ADI-22777 (antibody, V domains shown, full-length IgG) VH: QVQLVQSGAEVKRPGASVKVSCKASEYTFNFHDINWVRQAPGQGLEWMGWMNPKSGNTGYAQKFQGRVTMTRDTSKNTAYLELSSLRSEDTAVYYCARGYGTSWSSDSWWGQGTLVTVSS VL: SYELTQLPSVSVSPGQTARITCSGDALSKQFVYWYQQKPGLAPMLVIYKDTNRPSWIPERFSGSGSGTTATLTISEVQAEDEADYYCQSVDNSGTYGWVFGGGTKVTVL | 0.268 | 0.762 | 0.224 |
| ADI-19484 (antibody, V domains shown, full-length IgG) VH: QVQLQESGSGLVKPSQTLSLTCVVSGGSISSGGNSWSWIRQPPGKGLEWIGYIYDSGNTYYNPSLKSRVTISVDRSKNQFSLKVSSVTAADTAVYYCARGAETGTTGWYDPWGQGTLVTVSS VL: DIRLTQSPSSLSASVGDRVTITCRASQTISSYLNWYQQKPGKAPRLLIYAASSLQSGVPSRFSGSGSGTDFTLTISSLQPEDFATYYCQQSYGTPRTFGQGTKVEIK | 0.369 | 8.92 | 0.355 |
| ADI-14379 (antibody, V domains shown, full-length IgG; also called Ab 47) VH: EVQLLESGGGVVQPGRSLRLSCAASGFTFSSYAMHWVRQAPGKGLEWVAVIGNDGTNKYHADSVKGRFTISRDNSKNTLYLQMNSLRAEDTAVYYCARRRVGIMYSGSYWGGMDVWGQGTTVTVSS VL: SYELTQPPSVSVSPGQTASITCSGDKLGGKYVSWYQQKPGQSPVLVMYQDTRRPSGIPERLSGSNSGSTATLTISATQAMDEADYYCQAWDITTVHVVFGGGTKLTVL | 3.29 |  | 2.35 |
| ADI-22764 (antibody, V domains shown, full-length IgG) VH: QVQLVESGPGLVRPSGTLSLTCAVSGGSISGKNWWSWVRQPPGKGLEWIGEIDHSGSTNYNPSLKSRVTISVDKSKNQFSLKLSSVTAADTAVYYCARTGLYDSSGYYLYYFNYWGQGTLVTVSS VL: EIVMTQSPSSLSASVGDRVTISCRASQTIASYVNWYQQRPGKAPNLLIFAASNLQTGVPSRFRGSGSGTVFTLTISSLQPEDFATYYCQQSYSTPRTFGQGTKVDIK | 0.334 | 1.42 | 1.44 |
| ADI-14339 (antibody, V domains shown, full-length IgG; also called Ab 7) VH: QVQLVESGGGVLQPGRSLRLPCEASGFTFNKYAMHWVRQAPGKGLEWVAAVSYDGGNKFYAESVKGRFTISRDNSKNTLYLQMNSLKPEDTAVYYCARDRWELLHGLDYWGLGTLVTVSS VL: SYELTQPPSVSVSPGQTARITCSGEALAKQYAYWYQQKPGQAPVLVIYKDNERPSGISERFSGSSSGTTVTLTISGVQAEDEADYYCQSADSSGTYVFGTGTKVTVL | 0.439 | 1.77 | 0.376 |
| ADI-22760 (antibody, V domains shown, full-length IgG; also called Ab 340) VH: EVQLVESGGGLVQPGRSLRLSCVASGFTFDDYAMHWVRQAPGKGLEWVSGINWNSGGIGYADSVKGRFTISRDNTKNSLYLQMNSLRAEDTALYYCAKDGSALMGYGVEVWGQGTTVTVSS VL: SYELTQPPSASGTPGQRVTISCSGSNSNIGNNYVYWYQQLPGTAPKLLIYRNNQWPSGVPDRFSASKSGTSASLAISGLRSEDEADYYCASWDDSLSALVFGGGTKLTVL | 1.19 | 3.07 | 1.25 |
| ADI-24834 (antibody, V domains shown, full-length IgG) VH: QVQLVQSGGGLVQPGGSLRLSCAASGFTFSSYAMSWVRQAPGKGLEWVSTISGSGGSTYYADSVKGRFTISRDNSKNTLYLQMNSLRAEDTAVYYCATWKRWGSGYYYSYMDVWGKGTTVTVSS VL: not shown | 0.211 | 0.732 | 0.26 |
| ADI-14361 (antibody, V domains shown, full-length IgG; also called Ab 29) VH: EVQLLESGGGFVQPGGSLRLSCAASGFTFSSYAVNWVRQAPGKGLEWVSLISGSGRTDYTDSVKGRFTISRDNAKNTLFLQMNSLRVEDTAVYYCAKSWGSSGYGYLDYWGQGTLVTVSS VL: QSGLTQPPSVSGAPGQRVTISCTGSSSNIGPGTDVHWYQHFPGTAPKLLIFGNSNRPSGVPDRFSGSKSGTSASLAITGLQAEDEAYYYCQSYDRTLSASVFGGGTKLTVL | 0.437 | 52.8 | 0.293 |
